Target: streptavidin (coated on iron oxide particles or on fluorescently-labeled polystyrene particles), P22629
Experiment: cell-based or functional assay

Sequence of streptavidin (coated on iron oxide particles or on fluorescently-labeled polystyrene particles), P22629 (P22629 37-163 limits assumed): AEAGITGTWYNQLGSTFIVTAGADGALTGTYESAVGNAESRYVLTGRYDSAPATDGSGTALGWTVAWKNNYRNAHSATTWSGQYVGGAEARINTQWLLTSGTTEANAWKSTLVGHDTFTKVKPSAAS

Color scale (0-5); sequential coloring of hair with streptavidin-coated iron oxide beads (color scale 0-5): 2
B1: peptide HC260 (peptide)
peptide: MASGSDPSAQSQLPDKHSGLHERAPQRYGPEPEPEPEPIPEPPKEAPVVIEKPKPKPKPKPKPPAHDHKNQKETHQRHAAGSGGGGSPMLSENWLTNHPQNGGAGGAGMLSENWLTNHPQNGK
modifications: not checked

From patent US20100247590A1, “Peptide-Based Systems For Delivery Of Cosmetic Agents” (JOHNSON & JOHNSON, priority 2009, published 2010)
